Measurements taken from paper PMC4546058, “The Energetics of Streptococcal Enolase Octamer Formation: The Quantitative Contributions of the Last Eight Amino Acids at the Carboxy-Terminus” (PLoS ONE, 2015).

Molecular target: the molecule itself
Test: AUC; sedimentation velocity, Beckman XL-I, 20°C, 30 000-37 000 RPM, TME-SO4 (50 mM Tris, 1 mM MgSO4, 0.1 mM EDTA, 44 mN H2SO4, pH 7.4); c(s) in Sedfit; octamer to 8 monomers

B1: Str enolase DB (Streptococcus pyogenes enolase, sequence of accession number NP_268959.1) (enzyme, UniProt P69949 1-435, looked up)
chain: MSIITDVYAREVLDSRGNPTLEVEVYTESGAFGRGMVPSGASTGEHEAVELRDGDKSRYLGLGTQKAVDNVNNIIAEAIIGYDVRDQQAIDRAMIALDGTPNKGKLGANAILGVSIAVARAAADYLEVPLYTYLGGFNTKVLPTPMMNIINGGSHSDAPIAFQEFMIMPVGAPTFKEGLRWGAEVFHALKKILKERGLVTAVGDEGGFAPKFEGTEDGVETILKAIEAAGYEAGENGIMIGFDCASSEFYDKERKVYDYTKFEGEGAAVRTSAEQVDYLEELVNKYPIITIEDGMDENDWDGWKVLTERLGKRVQLVGDDFFVTNTEYLARGIKENAANSILIKVNQIGTLTETFEAIEMAKEAGYTAVVSHRSGETEDSTIADIAVATNAGQIKTGSLSRTDRIAKYNQLLRIEDQLGEVAQYKGIKSFYNLKK
notes: PDB 3ZLH is the same protein with E77K; also called Streptococcal enolase; source: stored in saturated ammonium sulfate, dialyzed against TME-SO4
  stoichiometry N: 8
